From article PMC11955521, “A GTP-driven central carbon metabolism in the cellulolytic bacterium Ruminiclostridium cellulolyticum” (Communications Biology, 2025)

What was measured:
HPLC-RI of products [1] = substrate: Nc1nc2c(ncn2[C@@H]2O[C@H](COP(=O)(O)OP(=O)(O)OP(=O)(O)O)[C@@H](O)[C@H]2O)c(=O)[nH]1; assay: HPLC-RI of products; format: biochemical, Ruminiclostridium cellulolyticum; details: xylulose 2.5 mM, 20 mM MgCl2, 25 mM HEPES pH 7.0, 37 °C
Text: (§1) HPLC-RI of products on Xylulokinase (XK)

HPLC-RI of products [2] = substrate: Nc1ncnc2c1ncn2[C@@H]1O[C@H](COP(=O)(O)OP(=O)(O)OP(=O)(O)O)[C@@H](O)[C@H]1O; assay: HPLC-RI of products; format: biochemical, Ruminiclostridium cellulolyticum; details: xylulose 2.5 mM, 20 mM MgCl2, 25 mM HEPES pH 7.0, 37 °C
Text: as §1

HPLC-RI of products [3] = substrate: O=C(CO)[C@@H](O)[C@H](O)CO; assay: HPLC-RI of products; format: biochemical, Ruminiclostridium cellulolyticum; details: GTP 10 mM, 20 mM MgCl2, 25 mM HEPES pH 7.0, 37 °C
Text: as §1

[4] = substrate: Nc1ncnc2c1ncn2[C@@H]1O[C@H](COP(=O)(O)OP(=O)(O)OP(=O)(O)O)[C@@H](O)[C@H]1O; assay: HPLC-RI, glucose consumption; format: biochemical, Escherichia coli; details: glucose 5 mM, 20 mM MgCl2, 25 mM HEPES pH 7.0, 37 °C
HPLC-RI of pyruvate [5] = substrate: C=C(OP(=O)(O)O)C(=O)O; assay: HPLC-RI of pyruvate; format: biochemical, Ruminiclostridium cellulolyticum; details: ADP 5 mM, no FBP, 20 mM MgCl2, 30 mM KCl, 25 mM HEPES pH 7.0, 37 °C, Hill fit, nH 1.32
Text: (§2) HPLC-RI of pyruvate on Pyruvate kinase (PK)

HPLC-RI of pyruvate [6] = substrate: Nc1nc2c(ncn2[C@@H]2O[C@H](COP(=O)(O)OP(=O)(O)O)[C@@H](O)[C@H]2O)c(=O)[nH]1; assay: HPLC-RI of pyruvate; format: biochemical, Ruminiclostridium cellulolyticum; details: PEP 10 mM, no FBP, 20 mM MgCl2, 30 mM KCl, 25 mM HEPES pH 7.0, 37 °C
Text: as §2

HPLC-RI of pyruvate [7] = substrate: Nc1ncnc2c1ncn2[C@@H]1O[C@H](COP(=O)(O)OP(=O)(O)O)[C@@H](O)[C@H]1O; assay: HPLC-RI of pyruvate; format: biochemical, Ruminiclostridium cellulolyticum; details: PEP 10 mM, no FBP, 20 mM MgCl2, 30 mM KCl, 25 mM HEPES pH 7.0, 37 °C, Hill fit, nH 1.41
Text: as §2

purified protein [8] = substrate: CC(=O)O; assay: purified protein; details: reverse reaction, ATP 10 mM, 20 mM MgCl2, 25 mM HEPES pH 7.0, 37 °C
HPLC-RI of products [9] = substrate: CC(=O)OP(=O)(O)O; assay: HPLC-RI of products; format: biochemical, Ruminiclostridium cellulolyticum; details: ADP 10 mM, 20 mM MgCl2, 25 mM HEPES pH 7.0, 37 °C
Text: (§3) HPLC-RI of products on Acetate kinase (AK)

HPLC-RI of products [10] = substrate: Nc1nc2c(ncn2[C@@H]2O[C@H](COP(=O)(O)OP(=O)(O)O)[C@@H](O)[C@H]2O)c(=O)[nH]1; assay: HPLC-RI of products; format: biochemical, Ruminiclostridium cellulolyticum; details: acetyl-P 5 mM, 20 mM MgCl2, 25 mM HEPES pH 7.0, 37 °C
Text: as §3

HPLC-RI of products [11] = substrate: Nc1ncnc2c1ncn2[C@@H]1O[C@H](COP(=O)(O)OP(=O)(O)O)[C@@H](O)[C@H]1O; assay: HPLC-RI of products; format: biochemical, Ruminiclostridium cellulolyticum; details: acetyl-P 5 mM, 20 mM MgCl2, 25 mM HEPES pH 7.0, 37 °C
Text: as §3

HPLC-RI of products [12] = substrate: Nc1ncnc2c1ncn2[C@@H]1O[C@H](COP(=O)(O)OP(=O)(O)OP(=O)(O)O)[C@@H](O)[C@H]1O; assay: HPLC-RI of products; format: biochemical, Ruminiclostridium cellulolyticum; details: reverse reaction, acetate 10 mM, 20 mM MgCl2, 25 mM HEPES pH 7.0, 37 °C
Text: as §3

purified protein [13] = substrate: Nc1nc2c(ncn2[C@@H]2O[C@H](COP(=O)(O)OP(=O)(O)O)[C@@H](O)[C@H]2O)c(=O)[nH]1; assay: purified protein; format: biochemical, Ruminiclostridium cellulolyticum; details: forward, 3 mM glyceraldehyde-3-P, 1.1 mM NAD+, 10 mM MgCl2, 50 mM phosphate pH 7.0, 15 mM cysteine, 37 °C, 1,3-BPG concentration unknown, Hill fit, nH 1.63
purified protein [14] = substrate: Nc1ncnc2c1ncn2[C@@H]1O[C@H](COP(=O)(O)OP(=O)(O)O)[C@@H](O)[C@H]1O; assay: purified protein; format: biochemical, Ruminiclostridium cellulolyticum; details: forward, 3 mM glyceraldehyde-3-P, 1.1 mM NAD+, 10 mM MgCl2, 50 mM phosphate pH 7.0, 15 mM cysteine, 37 °C, 1,3-BPG concentration unknown, Hill fit, nH 4.03
[15] = substrate: Nc1nc2c(ncn2[C@@H]2O[C@H](COP(=O)(O)OP(=O)(O)OP(=O)(O)O)[C@@H](O)[C@H]2O)c(=O)[nH]1; assay: GAPDH-coupled NADH oxidation; format: biochemical, Ruminiclostridium cellulolyticum; details: reverse, 3-PG 25 mM, 0.3 mM NADH, 10 mM MgCl2, 50 mM phosphate pH 7.0, 15 mM cysteine, 37 °C
[16] = substrate: Nc1ncnc2c1ncn2[C@@H]1O[C@H](COP(=O)(O)OP(=O)(O)OP(=O)(O)O)[C@@H](O)[C@H]1O; assay: GAPDH-coupled NADH oxidation; format: biochemical, Ruminiclostridium cellulolyticum; details: reverse, 3-PG 4 mM, 0.3 mM NADH, 10 mM MgCl2, 50 mM phosphate pH 7.0, 15 mM cysteine, 37 °C

B1: Xylulokinase (XK) (Ruminiclostridium cellulolyticum H10) (protein)
chain: MSFLIGIDLGTSGVKTVLFDEAGKPVASSTVEYPLYQPNLGWAEQDPEEWWKGTCESINNVMLKSGVDKREVKGIGLSGQMHGAVLLDKDDKVLRNAIIWCDQRSAAECDEITDLIGRERLIEITANPALTGFTASKIMWVKNNEPQIFEKIAKILLPKDYIRFRLTGEYATEVSDASGMQLMNIAKREWSIEVLDKLGLSTSMLGKMYESQEVTGKVTSSAADQTGLNAGTIVVGGGGDQAAGAVGNGIVKSGIVSSTIGTSGVVFAYTDKLTIDPLGRVHTFCHAVPNTYHVMGVTQGAGLSLKWFRDNFCMEEMMTSELSDIDVYKLLDAEAETIKPCSDGLVYLPYLMGERTPHLDPNAKGVFFGLTAKHTKPHFIRSIMEGVTFSLRDCLEIIKGMGVDVSEVRASGGGGKSGIWRQMQADVFGTNINRIRSDEGPALGVAILAGVGAGIYDSVPQACEEVIKVKDTLAPVEDRIKKYDDFYKLYTKLYKSLKDDFNQLSTILK
notes: full-length, C-terminal His tag (pET28a), E. coli BL21(DE3), Ni-NTA and anion exchange
In the case of B1, the Km (HPLC-RI of products [1]) is reported as 120 ± 20 µM, the kcat (HPLC-RI of products [1]) is reported as 6540 ± 177 iu/µmol and the Km (HPLC-RI of products [2]) is reported as 1180 ± 180 µM. For the same protein, the kcat (HPLC-RI of products [2]) was 6653 ± 281 iu/µmol, the Km (HPLC-RI of products [3]) was 300 ± 70 µM and the kcat (HPLC-RI of products [3]) was 8788 ± 375 iu/µmol.

B2: E. coli glucokinase (GLK) (Escherichia coli K-12) (protein)
chain: MTKYALVGDVGGTNARLALCDIASGEISQAKTYSGLDYPSLEAVIRVYLEEHKVEVKDGCIAIACPITGDWVAMTNHTWAFSIAEMKKNLGFSHLEIINDFTAVSMAIPMLKKEHLIQFGGAEPVEGKPIAVYGAGTGLGVAHLVHVDKRWVSLPGEGGHVDFAPNSEEEAIILEILRAEIGHVSAERVLSGPGLVNLYRAIVKADNRLPENLKPKDITERALADSCTDCRRALSLFCVIMGRFGGNLALNLGTFGGVFIAGGIVPRFLEFFKASGFRAAFEDKGRFKEYVHDIPVYLIVHDNPGLLGSGAHLRQTLGHIL
notes: full-length, C-terminal His tag (pET22b+), E. coli BL21(DE3), Ni-NTA and anion exchange
B2 showed a Km [4] of 2470 ± 390 µM.

B3: Pyruvate kinase (PK) (Ruminiclostridium cellulolyticum H10) (protein)
chain: MRRTKIICTLGPASDNEDILRKMMLGGMSLARMNFSHGTHEEHKKRADLVKKIREELNLPIPLLLDTKGPEIRTGKFKNDQAILKENNEFILVNEDILGDETKCTITYKELYKDVSRGSKILINDGLVELEVTEIKNKDIYCRVLNGGAVGNHKGINVPGAEIKLPSLTEQDIDDIKFGIKNDFDIIAASFVRKASDVVEIRKVLEKNGGKDILIIAKIENREGIKNFNDILKVSDGIMVARGDLGVEIPVEEVPIVQKNIIEKCYQNGKPVITATQMLDSMIRNPRPTRAEASDVANAIFDGTSCVMLSGETAAGKYPIETIEVMAKIAEKAEKSMDYWNRFATARTELDTSVTNAISHATCTTALDLKAAAIITVTQSGHTARMIARFRPACPIIATTANPKVQRQLNLSWGVMPYLVGIAKTTDDMFDNGVEKALESGLVKNGDLAVITAGMPAGISGTTNTLKVHIVGRVLVQGVGIGTSSVTGELCVAQNTKEAMDKFTDGNIIVAPFTDNSMLPVIKRASAIVVEEHGQSCHAATVGLALDIPVILGAENATKILKAGSVVTVDSERGLVIRCN
notes: as for B1
With B3 the Km (HPLC-RI of pyruvate [5]) was 1560 ± 20 µM, the kcat (HPLC-RI of pyruvate [5]) was 9212 ± 50 iu/µmol and the Km (HPLC-RI of pyruvate [6]) was 900 ± 140 µM. The kcat (HPLC-RI of pyruvate [6]) was 977 ± 48 iu/µmol, the Km (HPLC-RI of pyruvate [7]) was 1870 ± 140 µM and the kcat (HPLC-RI of pyruvate [7]) was 9508 ± 328 iu/µmol.

B4: Acetate kinase (AK) (Ruminiclostridium cellulolyticum H10) (protein)
chain: MKVLVINAGSSSLKYQLIDMKNETVLAKGLCDRIGIDNSFIKQSRGSEEAVILNKELKNHKDAIEAVISALTDDNMGVIKNMSEISAVGHRIVHGGEKFNSSVVIDENVMNAVRECIDVAPLHNPPNIIGIEACQQIMPNIPMVAVFDTTFHSSMPDYAYLYALPYELYEKYGIRKYGFHGTSHKYVAERASAMLDKSLNELKIITCHLGNGSSICAVNKGKSIDTSMGFTPLQGLAMGTRSGTIDPEVVTFLMEKENLDVKGVSKLLNKKSGVLGISGVSSDFRDLHAAADAGNSRAELAIEIFCYGVKKFIGEYIAVMNGVDAIVFTAGVGENNSVVRNMIISDMDFLGIKIDEEKNKLRGQEVDISTADAAVRTLVIPTNEELAIARETVRLVK
notes: as for B1
B4 was tested, and the Km (purified protein [8]) was 2370 ± 380 µM, the kcat (purified protein [8]) was “kcat = 12.85 ± 0.85 iu/umol” and the Km (HPLC-RI of products [9]) was 1490 ± 200 µM. The kcat (HPLC-RI of products [9]) was 25,112 ± 1755 iu/µmol, the Km (HPLC-RI of products [10]) was 1470 ± 130 µM and the kcat (HPLC-RI of products [10]) was 35,365 ± 1,150 iu/µmol. The Km (HPLC-RI of products [11]) was 1130 ± 210 µM, the kcat (HPLC-RI of products [11]) was 25,437 ± 1668 iu/µmol and the Km (HPLC-RI of products [12]) was 1470 ± 170 µM. The kcat (HPLC-RI of products [12]) was 16.68 ± 0.74 iu/µmol.

B5: Phosphoglycerate kinase (PGK) (Ruminiclostridium cellulolyticum H10) (protein)
chain: MSMMNKKTIEDIDVAGKRVIVRVDFNVPLDENRKITDDKRIVGALPTIKYLVDKGAKTILVSHLGRPKEGFEDKFSMKPTAVRLGELLGKEIIMAKDVVGEDAKSKAAALKDGEVLMLENVRFHKEETKNDANFAKELASMAEIFVNDAFGTAHRAHASTAGLADYLPAVCGFLIKKEIEFMGKALANPARPFVAILGGAKVSDKIAVIENLIDKVDTLIIGGGMAYTFLKAKGYHIGNSICEEDKIDLAKTLMEKAEAKGVEIMLPIGSMVAQEFKNDTEIKYVPSDAMPDGWMGMDIGSLTIENFAKEIKKAKTVIWNGPMGVFEFPNFATGTKEIAKAVAESGALSIVGGGDSAAAVEQLGFADKITHISTGGGASLEFLEGKELPGIAVLMDKNPRKVIAAGNWKMNKTASEAVEFVNALKPAVADAKNEVVVGVPFVCLPGVVAAAKGSNIKVAAQNMHWEEKGAFTGEVSGPMLADLGVDYVIIGHSERREYFGETNEMINKKAHAIFKYGMTPIICCGETLTQREQGVTADHIRYQIKVALLDLTAEQVSKLVIAYEPIWAIGTGKTATNEQANEVCTIIRELVAELYGSEVAEHVRIQYGGSVNAKNATELFAMSDIDGGLVGGASLKVEDFSIIAKA
notes: full-length, C-terminal His tag (pET28a), E. coli BL21(DE3), Ni-NTA, anion exchange, gel filtration
B5 showed a Km (purified protein [13]) of 135 ± 8 µM, a kcat (purified protein [13]) of 771 ± 20 iu/µmol and a Km (purified protein [14]) of 80 ± 2 µM. It also gave a kcat (purified protein [14]) of 733 ± 12 iu/µmol, a Km [15] of 4660 ± 1240 µM and a kcat [15] of 2831 ± 348 iu/µmol. For the same protein, the Km [16] was 480 ± 70 µM and the kcat [16] was “kcat = 4256 ± 148 iu/umol”.
